Measurements taken from patent US20240425601A1 (University of California, published 2024).

Molecular target: cell surface-expressed human αvβ8 (human, UniProt P06756 31-1048; P26012 43-769)
Test: cell-based or functional assay

Sequence of cell surface-expressed human αvβ8 (P06756 31-1048, chain 1 of 2): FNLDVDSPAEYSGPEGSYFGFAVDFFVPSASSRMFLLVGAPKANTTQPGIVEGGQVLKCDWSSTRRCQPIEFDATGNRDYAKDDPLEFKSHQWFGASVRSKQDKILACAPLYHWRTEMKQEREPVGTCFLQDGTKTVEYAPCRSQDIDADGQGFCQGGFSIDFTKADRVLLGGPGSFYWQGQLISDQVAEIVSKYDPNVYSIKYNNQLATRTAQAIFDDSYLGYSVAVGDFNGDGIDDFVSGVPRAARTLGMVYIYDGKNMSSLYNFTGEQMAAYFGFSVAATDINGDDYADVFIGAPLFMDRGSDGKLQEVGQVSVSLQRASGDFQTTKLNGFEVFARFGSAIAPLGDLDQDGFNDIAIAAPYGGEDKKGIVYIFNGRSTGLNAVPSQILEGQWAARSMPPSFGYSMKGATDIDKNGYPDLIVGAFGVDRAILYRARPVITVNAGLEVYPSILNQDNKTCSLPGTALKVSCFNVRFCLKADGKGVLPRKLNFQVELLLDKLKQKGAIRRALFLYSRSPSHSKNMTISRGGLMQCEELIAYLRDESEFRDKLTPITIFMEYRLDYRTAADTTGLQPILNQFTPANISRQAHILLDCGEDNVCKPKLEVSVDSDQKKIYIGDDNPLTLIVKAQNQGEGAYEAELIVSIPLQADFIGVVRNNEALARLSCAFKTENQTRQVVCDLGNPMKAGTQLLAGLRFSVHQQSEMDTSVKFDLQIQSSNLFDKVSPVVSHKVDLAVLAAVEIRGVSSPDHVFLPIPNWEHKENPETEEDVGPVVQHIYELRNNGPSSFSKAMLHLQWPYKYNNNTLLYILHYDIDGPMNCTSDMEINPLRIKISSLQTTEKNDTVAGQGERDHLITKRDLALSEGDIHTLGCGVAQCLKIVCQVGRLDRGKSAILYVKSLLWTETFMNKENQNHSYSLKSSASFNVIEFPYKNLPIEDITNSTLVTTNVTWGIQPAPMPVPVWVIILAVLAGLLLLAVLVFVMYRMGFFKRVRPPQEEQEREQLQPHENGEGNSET
Sequence of cell surface-expressed human αvβ8 (P26012 43-769, chain 2 of 2): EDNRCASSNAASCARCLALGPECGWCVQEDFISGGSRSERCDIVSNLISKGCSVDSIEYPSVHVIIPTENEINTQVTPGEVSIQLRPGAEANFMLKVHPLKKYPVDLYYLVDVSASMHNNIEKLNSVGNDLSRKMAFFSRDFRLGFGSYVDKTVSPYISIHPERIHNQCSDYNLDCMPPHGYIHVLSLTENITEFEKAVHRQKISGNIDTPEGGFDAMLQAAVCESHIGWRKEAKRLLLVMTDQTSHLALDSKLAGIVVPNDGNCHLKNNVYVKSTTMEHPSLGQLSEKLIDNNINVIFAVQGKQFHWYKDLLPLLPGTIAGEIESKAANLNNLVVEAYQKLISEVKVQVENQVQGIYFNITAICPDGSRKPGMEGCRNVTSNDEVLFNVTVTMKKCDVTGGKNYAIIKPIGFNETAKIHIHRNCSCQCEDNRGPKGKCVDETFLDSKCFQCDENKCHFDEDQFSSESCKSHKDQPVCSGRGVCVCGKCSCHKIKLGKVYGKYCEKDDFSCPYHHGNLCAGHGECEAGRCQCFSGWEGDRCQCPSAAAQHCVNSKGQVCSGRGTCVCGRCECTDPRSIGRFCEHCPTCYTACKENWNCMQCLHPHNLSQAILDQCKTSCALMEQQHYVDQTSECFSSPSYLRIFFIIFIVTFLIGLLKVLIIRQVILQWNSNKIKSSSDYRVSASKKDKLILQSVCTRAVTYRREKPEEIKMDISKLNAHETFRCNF

B1: ADWA16 (antibody, V domains shown)
VH: QVQLQQSGAELAKPGASMKMSCKASGYTFSSYWIYWVKQRPGQGLEWIGYINPTTGYTEYNQKFRDKATLTADKSSNTAYMQLSSLTSEDSAVYYCATEGGNWEDYWGQGTTLTVSS
VL: DIQMTQTTSSLSASLGDRVTISCRASQDISNYLNWYQQKPDGTVKLLIYYTSRLYSGVPSRFSGSGSGTDYSLTISNLEPKDIATYYCQQFSELPRTFGGGTKLEIK
  inhibition of adhesion of L229 cells expressing αvβ8 to TGFb1 LAP (potency against ADWA11): > 10 fold
